The data set can be described thus: label from the status in PepcDB records.
In the case of “MPMSSPMMSDTDREDLDAILRTVLVSDKGYVETLSRATGLNGKALTDKAAFTLSRLSAVGGYDYENEALEVAGRYLAEARFTEAEAIYRQVLVSFPEKHGFNHPGYATRLNNLAEVLRATARYDEAESLYRQALEIDREALGLEHPDYGIDLLNLAGLLHDRGRYEAAEPLYREAMTIIGKVVGEEHYRYATAQNNLAGLLQDMLRFEEAEALCRQALEITSKTLGESHSVYATRLNNLAELLGTTERYGEAEPLYRQALEITQKTLGEEHPDFAIRLNNLAVLLKATGRYEEAEPLYRQALEITHRTLGEAHPDYATRLNNFAGLLDSTERYDEAEPLYRQALEICEKALGVEHPSTQTVRANLELFLSEKPD”, the protein production result is “failed”. “MAYEDLSKKIIAGVGGKDNVKSVVHCTTRLRFKLKDESATHTDELKDTDGVITVVQSGGQYQVVIGNEVADVYETLIRVGGFADGGSVPDDYEDGEKMSIFDRFIDLISGIFTPMLGVLCAAGMIKGFVAMFVAFNWLSENSGTYKILYSIGDGFFYFLPIVLGLTAAKKFHVDQFVGMAIGMALCYPSIVALNSSKTVLSTLFSGSIFESQIHATFLGIPVVMMSYTSSVIPIILAVWFASKVQAFAKRIVPTVVKTFLVPFITLLIAVPITFLIIGPVASWLSDGISTVCVAIYNFSPIVAGLVMGAFWQVFVIFGVHWGFVAVMMANLASQGFDPILGLSLAASFAQTGVVLGILLQTKNQKTRGIALPAFISGIFGVTEPAIYGLTLPRKRPFILSCVAASIGGGIIGFAGTKMYMMGGMGLFSIPAAINSKTGVDGSVYGLIIAMAIAAVLGFALQMLFGYKSVDSNDKQTKVVETAATADPVMAGGVSVETTPTGAATKVEPNVTYNAATKLSSPETGQIIPLSEVKDEVFSSGAMGKGVAIEPTDGVLYAPADGEVALVFPTGHAVGLNTTDGAEILMHIGMDTVELEGKGFETLVQKGETVKAGQPLVKFDIEAIKAAGYPVTTPMVVTNSKNYHDVKLAFPAATEVNATEPLLQLN”: the protein production result is on record as “failed”.

Regarding “MIPQIPLPMLSEGKDCKIREVLAGKALKRRLTEMGFTPSSSIRLIGCERGNLLVNVNGARYALGKGMAMKIMVEPD”, the protein production entry was “failed”. As to “MMNRLAVRIPTMHSFAWTAADAASRWRLLRISMLLQGFPRNPEPAVRAPDLWRTRVGGGSFGVLFLEAAEVPEALPMQGLSASLVLIAVLAVLAPVATRLLDRWVKVPIVVFEIVLGILFGPSVLGWVQSTPFTDTLADFGLAMLFFVAGNEIDFAAIRGRPIYRASAGWVISLAAGIGAGFVLGPSPEAAVIIGVALCSTALGALLPILRDAGASKSPIGVAATALGAAGEFGPLIAISLFFSGKQLGVASGVLLGFVLLTGVAIYLASQARHTLFHAQVTATLHTSSQFAMRSILLILSSLVVLSMVLGLDMLLGAFAAGVLWKVTIARAPVADRKVIETKIDAVAFGFLVPIFFIDTGIDFDLGALTSSPLTLAMVPLFLSLLLLIRGVPSLLATPPGSSRADKQALLLFGATALPIIVAVTTIGREHGYITSGISSALIGAGMLSVLLFPLLALRLLRRTEAADPKQRTPKA”, the protein production result is reported as “failed”. For “AIQKQMLVPEVVVNKDGDWVTPVMKDEGSIQYFVVFRFINGNEIIEPKDKDYEKLGSFMRMFHEKTNGVLKSVPQTWRGYERPIYSEKKMIHEPLQCLLNTSFLSYEDKNKCLRIAERIQELTNSIQLREKQFVHGDMHFGNILVDKEDWYLLDFDECGFGYKEFDIGVPRLHLIASGQLEDAWGNFMMGYGENIS”, the protein production entry is on record as “failed”. “MKGREMKIVEFMKDKMVYIVFTLIFSSIYAGVHHRSIFLSLKVTLPIALFMMLFQPMVFMDIKKAFTTRTRVKTKYLILLTFFYTLLFPVLTWIFLKFWLRMMPNTEPQLLAGMVLIGLAPLPSSSPAFTNLAGGRFQLTLVGVMWTFLLSIFVMPFYAKLILHTIIQVPIEMLLKSLILYIITPLIIGQLTKYIILHWKGTDALISLKKPLIGISLIGMYWMIVVVFGINAKVIVERPELILIGAITMNIYFLLRAAIAYFIGKALDFPFEQNISLVYSTGSNMTLATAMAIGTFGPLAAVGTALGGPFSDMLLMIFFVKLFTLIRKKYIHNERKSITGG”: the protein production entry is “failed”. As to “MNRTARRDGTPEKPRRGSQGGSRGDYGKPKRSHAKPQSANSGRPIKQRKQRDSEMLISNARPARHQHVGRREAGDGSTEG”, the protein production entry is listed as “failed”. “NIKNILSERVSAAMVAAGLPEGTNPAISLSNRPQFGDYQANGVMGAAKKLKTNPRELATKVVAELDLDGIASKIELAGPGFINIHLDESWLAAQLNEVAQDDFIGVAQRGTT”: the protein production entry is “not failed”.

Turning to “MDVDTAFLNSTMDEPIYVKQPPGFVNERNPDYVWELYGGMYGLKQAPLLWNEHINNTLKKIGFCRHEGEHGLYFRSTSDGPIYIAVYVDDLLVAAPSPKIYDRVKQELTKLYSMKDLGKVDKFLGLNIHQSSNGDITLSLQDYIAKAASESEINTFKLTQTPLCNSKPLFETTSPHLKDITPYQSIVGQLLFCANTGRPDISYPVSLLSRFLREPRAIHLESARRVLRYLYTTRSMCLKYRSGSQLALTVYCDASHGAIHDLPHSTGGYVTLLAGAPVTWSSKKLKGVIPVPSTEAEYITASETVMEI”, the protein production entry is recorded as “failed”. “LGINEISSSFFSLLLEILLLESQASLPMLEERVLDWQSSPASSLNSWFSAAPNWAELVLPALQYLAGESRAVPSSFSPFVEFKEKTQQWKLLGQSQDNEKELAALFQLWLETKDQAFCKQENEDSS”: the protein production result was “not failed”. With “MPYFLIHNKNDNVGVAIADIKTGQEVEGIYIEDMTQGPKIKAISDIPLGHKIALKDIRQSDIVIKYGRPIGSAIKDIKVGEHVHVHNIRSNRWGKWKNQ”, the protein production result was “not failed”.

As for “MEITVIASSSIDEGIGSWDLKTGTEQLQFKPCASPAHGLTAVGEKFLASSQLSARNTSGSIFYWSWTKPQAEVKSYPVEPIKALAANNEGTYLVGGGISGDIYLWEVATGKLLKKWHGHYRSVTCLVFSGDDSLLVSGSQDGSIRVWSLIRLFDDFQRQQGNTLYEHNFNEHTMSVTDIVIDYGGCNAVIISSSEDRTCKVWSLSRGKLLKNIIFPSVINALALDPGGCVFYAGARDSKIYIGAINATSEYGTQVLGSVSEKGKAITCLAYCADGNLLISGSEDGVVCVWDPKSLRHVRTLIHAKGSRKGPVNNIQIVRKTIVANSNKTQVSWKSRGALIPPPLEKYERPVEDTMDGIVTVDPPPFSDVPVYSSFLSADLIDEQVKELQQQGSAATEMEMERLKLEYKRSLQMNEQWQKNYENLLQVVMEEEQIGGTN”, the protein production entry is listed as “failed”. With “MPITIGNGFLKSEILTNSPRNTKEAWWKVLWEKIKDFFFSTGKAKADRCLHEMLFADRTPTRERLTEIFFELKELACASQRDRFQVYNPNENDDTIILRIMDQNEENELLRITQNTDAFTCEVMGNAYFLIKDRPDILKPHPQMTAMINRRYSEIVDYPLPSTLCLNPAGAPTLSVPLDNIEGYLYSEWRKGNLDEWKTQEKVTYLAAKIQSGIEKTTRILQHANISESTQQSAFLETMAMCGLKQLEIPPPHTHIPIEKMVKEVLLADKTFQAFLVTDPSTSQSMLAEIVEAISDQVFHAIFRIAPQAIQKMAEEQLTTLHVRSEQQSGCLCCFL”, the protein production entry is “failed”. As for “MKILVIGAGPAGLVFASQLKQARPLWAIDIVEKNDEQEVLGWGVVLPGRPGQHPANPLSYLDAPERLNPQFLEDFKLVHHNEPSLMSTGVLLCGVERRGLVHALRDKCRSQGIAIRFESPLLEHGELPLADYDLVVLANGVNHKTAHFTEALVPQVDYGRNKYIWYGTSQLFDQMNLVFRTHGKDIFIAHAYKYSDTMSTFIVECSEETYARARLGEMSEEASAEYVAKVFQAELGGHGLVSQPGLGWRNFMTLSHDRCHDGKLVLLGDALQSGHFSIGHGTTMAVVVAQLLVKALCTEDGVPAALKRFEERALPLVQLFRGHADNSRVWFETVEERMHLSSAEFVQSFDARRKSLPPMPEALAQNLRYALQRLEHHHHHH”, the entry is “not failed”. As for “MTWLPFIIIIPLFGAFSMPIVSLLKGKAKEIWATIISFTTLMVGIQVFREVWNRGTIVYALGSETPFGKANFPIRIVWEVDKFGAIMVLIITLVSFLAVLYSIEYMKHDTGLEKYYTLILILELGMLGIAITGDIFNFYVFLEIMSIASYALVAFRNDTWEAIEAGIKYMFVGSLASSLVLLGIALLYGQYGTLTMGYLAVKMSENPTIVAKIALSLFLGGLLFKSGASPVHMWLADAHPAAPSSISAMLSGLVIKVGGIYAIARVVFSIFLPAINLATVGWLVIIFACITLIVGNAMAVVQEDMKRLLAYSSVGQIGYILLGLGIGMVAYGSKIGELALAGAIYHIVNHAMMKALLFLVAGAVLHELGTRNLNELSGLAKTMPKTTFAFLIGAAAIVGMPPLNGFASKWLIYESSALFNPIIGSIAIIGTAFCTAAYVRVLFTFFGRPNEKVMRAKDPGALMLIPMFILVIAIILMGIFPWQISDKIMIPAARNLWDITSYVMTLMGGG”, the entry is “failed”. The same measure for “MPKRRGHGEGTVYQRPDGRWTAQITVGIDHEGKQRRLTLYGKSKKEVLEKLTQALYQQQNGGFIEPSKITVEQWLNRWLTDYAKPHLRQSTWESYETVLRLHVIPTLGSIPLKKLQPADIQRLYASKLESGLSPTRVRYIHVVLHEAMSQARESGLLLQNPTEAAKPPRHPKKKVQPLNPEQVKRFLETAKQDPLYPAFLLALGTGLRRGEILGLRWQDLDLQKGILQVRQSLIRTREGLKFEEPKTEKSRRQIPLPPSVVAALKRHKAWVNQNKLILGPDYEDHDLVFPVENGRPRDPKGFAEYFNRLLDKAGLPHIRLHDLRHTHATLLLLEGVHPKVVQERLGHSTVSITLDIYSHILPGLQEKAAERIDGLLQPKENPSPKEGTIK”: “failed”; for “MNTLNRYIGWEVIKGAAFAALVLLALLNFFTFADELRDLGEGNYGLGSIFLYLTLTSPHSLYELIPSGALIGGLVVLGNMANNHELVAMQAAGVSRGRIVWAVLRAGIVISLISVVISEYVIPPAERAAQMLKATATRQQVASQTKYGVWIRDGNVYVNVREIENQERLGDIHIFEISPDGRPALAMHAARASFDRGIWKLEDIGLTRFDPAGNAAIAEHKEQEDWSSVLSPDMLDVFIVRPENLSAQDLAKYMAYQTENAQKSLAVEQAFWGRMVNPLITLAMLLLAIPFVFNARRDVSSGQRIVIGVTIGLGFYLTNRMVSHLGLVYEVNAPLTMVTPPLVVLFAALAAFRRRP”: “failed”. As for “MSMSSIPSSSPGGKRYGWVEKIGNKVPHPFLLFIYLIAVLIAATAILSALNVGVQNPTDGSRVVVKNLLSVEGLHWFLPNVIKNFSGFAPLGAILALVLGAGFAERVGLLPALMVKMASHVSARYASYMVLFIAFFSHISSDAALVIMPPLGALMFLAVGRHPVAGLLAAIAGVGCGFTANLLIVTTDVLLSGISTEAAKSIDASLHVSVIDNWYFMATSVIVLTLVGGLITDKLVEPRLGQWQGSRDEKLQTLTPAERFGLRIAGVATLVFVAVIALMVVPENGILRDPVQHTVMPSPFIKGIVPLIIFFFFVVSLAYGIATGKIRRQADLPQLMIEPMKEMAGFIVMVFPLAQFVAMFNWSNMGKFMAVGLTDLLESSGMNGVPAFVGLALLSAFLCMFIASGSAIWSILAPIFVPMFMLLGFHPAFAQILFRIADSSVLPLAPVSPFVPLFLGFLQRYRPDARLGTYYSLVLPYPLIFLAVWLLLLVGWYLVGLPIGPGIYPRLS”, the protein production entry is “failed”. On to “MFTTTSFPDFDSAAQATLTYLHQRMGLSLWMITRTEVDNWIVLQAQDNGYGVKRGDVFHWPDSFCSRMVRGEGPHIAPQSNLVEAYRNAPIAQQVDIGAYVGVPITYGNGSLFGTLCAIDPEIQPDSLVDELPLVELIAQLLSTILDFFLKAEIASRREEYQQLLKERDGTTGFYSLSGWEKLLASEEIRCQKFGFPVSVIIVEVEAAEPKGEEPINDLILQRAAKIIKTVCRQDDFCARIGEREFAILCIECHISQADFIRERLALGFEQGKITADIGIGERSPEKGLLDAMETAKSAAHEQKKFRVKTEG”, for which the protein production result is recorded as “failed”. On to “HSEPSHQSKAVVELPHKQGMARLAAGLLHPDMTIYLDAGTSTLEIVPHIIALSGMTVVTNDFGVVNALADAAHVDVIHTGGLLDHPNRSSVGGLAAATLRQLATDVAFMSTSSWDLQRGTTTPSALKVEVKQAAMQSASQTVLVATSSKY”, for which the protein production entry is reported as “failed”.
